# How the values were obtained:
# [1] = DSF thermostability of Ric8A constructs and Ric8A1–492 mutants (protein alone); type: physicochemical, bovine; conditions: DSF, Sypro Orange, protein alone 0.5 mg/ml, 20 mM Tris-HCl pH 7.5, 150 mM KCl, 5% glycerol, 1 mM TCEP, 1 °C/minute, mean ± SD (n = 3)
# Experimental: Stabilities of Ric8A constructs with and without peptide ligands were assessed using differential scanning fluorimetry (DSF), in which an increase in fluorescence of the Sypro Orange dye is measured. Ric8A1–492, Ric8A1–452 and Ric8A1–426 in 20 mM Tris-HCl (pH 7.5) buffer containing 150 mM KCl, 5% glycerol, and 1 mM TCEP with and without peptide were used at a final concentration of 0.5 mg/ml and were supplemented with a 1000-fold dilution of Sypro Orange dye (Invitrogen). Temperature was increased at 1 °C/minute and fluorescence signals were recorded using real-time PCR (C1000 Touch thermal cycler, Bio Rad), with the cycler set to FRET mode and the excitation wavelength set at 450–490 nm and the emission wavelength at 560–580 nm.
# Gαi = test: GTPγS binding to Gαi (GDP/GTPγS exchange, GEF activity of Ric8A constructs); type: biochemical; conditions: for Rate of GDP/GTPγS exchange reaction on Gαi: same conditions
# Experimental: The rates of GTPγS binding to Gαi in the absence or presence of Ric8A1–492 (Ric8A1–452) were measured by following the increase in fluorescence of Gαi tryptophan. Gαi (1 µM) was mixed with GDP (1 µM) in a fluorescence cuvette, in 20 mM Tris-HCl (pH 8.0) buffer containing 150 mM NaCl, 5% glycerol, 1 mM TCEP and 10 mM MgCl2, and incubated for 2 min. The binding reaction was initiated by addition of Ric8A1–492 or Ric8A1–452 (1 µM each) and/or and GTPγs (10 µM). Fluorescence at 340 nm was monitored with the excitation set at 295 nm. Data were fit to an equation for one phase association using the GraphPad Prism 7.05 software.
molecule,measurement,setting,value
"Ric8A1–452: bovine Ric8A construct, residues 1–452 (protein, left off: His6, N-terminal, state not stated) MEPRAVADALETGEEDVVMEALRAYNRENSQSFTFDDAQQEDRKRLAKLLVSVLEQGLPPSRRVIWLQSIRILSRDRSCLDSFTSRRSLQALACYAGISASQGSVPEPLNMDVVLESLKCLCNLVLSSPVAQALAAEAGLVVRLAERVGLCRQSSFPHDVQFFDLRLLFLLTALRTDVRQQLFQELQGVRLLTRALELTLGMTEGERHPELLPPQETERAMEILKVLFNITFDSIKREVDEEDAALYRHLGTLLRHCVMLAAAGDRTEELHGHAVNLLGNLPVKCLDVLLTLEPHEGSLEFLGVNMDVIRVLLSFMEKRLHQTHRLKESVAPVLSVLTECARMHRPARKFLKAQVLPPLRDVRTRPEVGELLRNKLVRLMTHLDTDVKRVAAEFLFVLCSESVPRFIKYTGYGNAAGLLAARGLMAGGRPEGQYSEDEDTDTDEYKEAKASI",Tm,[1],45.5 ± 0.1 °C
same,Tm,[1]; listed as Ric8A1-452,45.5 °C
same,"Rate of GDP/GTPγS exchange reaction on Gαi, mean","Gαi; Gαi 1 µM, GDP 1 µM, Ric8A construct 1 µM, GTPγS 10 µM, 20 mM Tris-HCl pH 8.0, 150 mM NaCl, 5% glycerol, 1 mM TCEP, 10 mM MgCl2, tryptophan fluorescence ex 295 nm, em 340 nm, one phase association fit, mean",0.03238
same,Rate of GDP/GTPγS exchange reaction on Gαi,Gαi; replicate 1,0.03221
same,Rate of GDP/GTPγS exchange reaction on Gαi,Gαi; replicate 2,0.04368
same,Rate of GDP/GTPγS exchange reaction on Gαi,Gαi; replicate 3,0.02126
